This note sets out measurements from publication PMC7201271.

Test [1] deals with Neisseria meningitidis quinol-dependent nitric oxide reductase, wild type (Neisseria meningitidis). Kind of test: native gel or EMSA; blue native PAGE of peak 1 and peak 2 fractions after concentration in 100 kDa cutoff devices; 5 and 10 ug loaded.
Test [2] has as its target NmqNOR-BRIL (Neisseria meningitidis qNOR with apocytochrome b562 fused to its C-terminus) (Neisseria meningitidis). Kind of test: cryo-EM structure; NmqNOR-BRIL peak 1 at 4 mg/ml, no additional buffer components; C2 symmetry, 3.06 A.

In turn, “Neisseria meningitidis quinol-dependent nitric oxide reductase, wild type (enzyme)” registered a stoichiometry N in test [1] of 2.

“NmqNOR-BRIL (Neisseria meningitidis qNOR with apocytochrome b562 fused to its C-terminus) (enzyme)” showed a stoichiometry N in test [2] of 2.
